Data: the supplement of paper PMC10126150
± gives the standard deviation of the averaged measurements.

Each sequence was assayed on ATP (assay: switch fluorescence ratio, 500 uM ATP over buffer (Cy3 cluster intensity, sum of 5 cycles each) (fold (ratio)); higher = stronger signal-on switching upon ATP binding; sequences stand for … in TCGTCGGCAGCGTCAGATGTGTATAAGAGACAGTTTTTTTTTTTTTTTTTTTTTTTTT…TC). Conditions: aptamer strand: ATP DNA aptamer (quencher-CACCTGGGGGAGTATTGCGGAGGAAGG + anchor), 100 nM annealed; ATP concentration: 500 uM.
Procedure, shortened: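 Switching-strand clusters labelled with Cy3 on a modified Illumina MiSeq flow-cell were annealed to 100 nM quencher-labelled ATP aptamer, imaged in selection buffer, and re-imaged after 15 min with 500 uM ATP at 22 °C. This was done over five cycles with NaOH stripping and re-annealing in between. The fluorescence ratio is summed target-cycle over summed buffer-cycle Cy3 intensity per cluster, averaged per switch-domain sequence, excluding clusters outside 100-1000 RFU.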
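Also: ATP exposure 15 min at 22 °C before imaging.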

In order of rising switch fluorescence ratio:
1. GGTAGGAGTA  0.932 ± 0.051
2. GGTATACGTA  0.935 ± 0.071
3. GGTGAAATGT  0.9561 ± 0.0059
4. CGTCATGGCT  0.957 ± 0.041
5. ACGTGAGTTT  0.957 ± 0.035
6. AGAGGGAAGG  0.959 ± 0.014
7. TTAAGTCCGG  0.9629 ± 0.0071
8. GGAGTGCAG  0.964 ± 0.025
9. ATTGAGTTAT  0.967 ± 0.019
10. GATTGGGTTC  0.9685 ± 0.0036
11. TTTGGGAGGG  0.969 ± 0.02
12. GATTCAGCGG  0.97 ± 0.015
13. GATAGCGGGA  0.97 ± 0.058
14. TTTATGATGA  0.971 ± 0.016
15. AGGTCCTCTA  0.974 ± 0.059
16. ATGTTTGCTT  0.974 ± 0.025
17. TAGTAAGTCA  0.976 ± 0.023
18. AGATTGCTTG  0.977 ± 0.03
19. GCCGTGCGGG  0.978 ± 0.03
20. TATTGGGGAA  0.978 ± 0.01
21. CATGACGGTT  0.978 ± 0.046
22. AGTGTGGGGT  0.979 ± 0.054
23. TTGTTGAATT  0.98 ± 0.042
24. TGGGTGGGCC  0.981 ± 0.023
25. TTAAGGAGGA  0.981 ± 0.03
26. GGGGCCAAGT  0.981 ± 0.037
27. AATTGCGGTA  0.982 ± 0.05
28. TTGGTTTGTT  0.982 ± 0.018
29. GGGCTGGAGG  0.983 ± 0.025
30. ATTGTATAAG  0.9828 ± 0.0052
31. AGTATTAGAG  0.983 ± 0.039
32. ATGGGAGATG  0.983 ± 0.0045
33. ATGATGGGGG  0.984 ± 0.027
34. AGGGGTTAAT  0.985 ± 0.035
35. TGGTCGTCGG  0.985 ± 0.037
36. AACGAGAGGA  0.986 ± 0.012
37. GCCTAAGTTT  0.986 ± 0.024
38. AACTGGGGTT  0.9868 ± 0.0035
39. CATGTAGTA  0.987 ± 0.028
40. GGGAAGAGGT  0.988 ± 0.027
41. GGGAAAGATA  0.988 ± 0.021
42. ATTTTTTTTC  0.989 ± 0.022
43. TCAACTATGG  0.989 ± 0.075
44. TTATTATTGA  0.989 ± 0.011
45. CGTTTGCGAT  0.989 ± 0.05
46. AGCTTAGGGA  0.99 ± 0.036
47. AAGATGTATG  0.99 ± 0.02
48. CAAGGGGTTT  0.99 ± 0.033
49. TTTTCGAATT  0.991 ± 0.015
50. ATGATAGAGG  0.991 ± 0.025
51. CGTCCTTGTT  0.991 ± 0.029
52. AGAAGGGTGG  0.992 ± 0.043
53. TACAAGCTTT  0.992 ± 0.024
54. TTTTTTAGTT  0.992 ± 0.025
55. GGGGTGTAGG  0.993 ± 0.024
56. GGATGGCTCG  0.993 ± 0.051
57. TAGGGAGATG  0.996 ± 0.056
58. CTGTATTATA  0.996 ± 0.031
59. CAATTGGAAC  0.99578 ± 8.3e-05
60. CGCTTAGATT  0.997 ± 0.025
61. TTGAGATTGG  0.998 ± 0.03
62. GGTGCCGTTT  0.998 ± 0.026
63. AAATTGTGTG  0.999 ± 0.0037
64. GGATGGAAAG  0.999 ± 0.015
65. GAGGGGAGAG  1 ± 0.016
66. TGTTAGGAGA  1 ± 0.018
67. TTAGGAAGTT  1 ± 0.033
68. CGGGTTAGTT  1.002 ± 0.01
69. AATATTTTTG  1 ± 0.019
70. CACAGCGTCG  1 ± 0.017
71. GGCAGTAGTG  1.002 ± 0.0037
72. CGGGCTATGG  1 ± 0.023
73. GAAGGTTATA  1 ± 0.047
74. GTTATAATGG  0.9998 ± 0.0087
75. AGGGTGATTG  1.009 ± 0.0077
76. TGGGGATCAC  1.01 ± 0.071
77. GGGGTGGTAA  1.01 ± 0.02
78. GATGATGATG  1.014 ± 0.0022
79. TCCCGGTAGT  1.01 ± 0.019
80. TTGAGAATCC  1.007 ± 0.0087
81. GTATGGCGGG  1.008 ± 0.0032
82. CTATGTTATT  1.01 ± 0.038
83. TAAATAAATT  1.01 ± 0.044
84. GGGAGGAAGA  1.01 ± 0.03
85. TATATTGCTA  1.01 ± 0.026
86. GGGCAGGTTT  1.01 ± 0.014
87. GGCACAGATT  1.01 ± 0.019
88. ACCTGGGTAT  1.01 ± 0.049
89. TAGGGGAAAA  1.02 ± 0.019
90. AGCCGGCGGT  1.02 ± 0.019
91. AGGGGGGCCA  1.02 ± 0.028
92. TGATCCGGAT  1.02 ± 0.09
93. ACAGACAATG  1.02 ± 0.045
94. TCGAACTGCT  1.02 ± 0.02
95. AGTTAAAACG  1.02 ± 0.011
96. ATGTGCTTGG  1.02 ± 0.027
97. GGGTCGCGCA  1.02 ± 0.029
98. GATGGCTGTG  1.021 ± 0.01
99. TGAAGGGGAA  1.02 ± 0.061
100. AATCGCAACG  1.02 ± 0.022
101. GGTTGGTTCT  1.02 ± 0.078
102. TGGGGATAGC  1.02 ± 0.053
103. TAAGCTATTT  1.02 ± 0.025
104. TTCGGACGT  1.02 ± 0.013
105. GCTTATGAAG  1.02 ± 0.02
106. GATTAAAGTC  1.03 ± 0.034
107. TCTGATGCGT  1.03 ± 0.0038
108. AGCGGGATGC  1.03 ± 0.028
109. TAAAAAGCGC  1.03 ± 0.03
110. ATTGCCGAGT  1.03 ± 0.022
111. TTTAGAAAGT  1.028 ± 0.0052
112. AAAATGGAAA  1.028 ± 0.0035
113. AGACTATGAG  1.03 ± 0.034
114. CGTTTTGTGC  1.03 ± 0.042
115. CAATGGGACG  1.03 ± 0.098
116. CCCTTGTACG  1.03 ± 0.036
117. ACTTTGCTCT  1.032 ± 0.0064
118. GGGATACGCT  1.03 ± 0.054
119. GTTGCTGGTG  1.025 ± 0.0071
120. TCAAAAGTTG  1.04 ± 0.044
121. AAGGGGCAGG  1.04 ± 0.084
122. ACGGTAGTGC  1.04 ± 0.022
123. GCCTTACGGT  1.04 ± 0.038
124. CTAACTCGC  1.04 ± 0.011
125. TGCGCATCTA  1.038 ± 0.0098
126. CAATAGTCAG  1.04 ± 0.015
127. TGGCGGGGGA  1.05 ± 0.042
128. TCGGCCGGGA  1.05 ± 0.011
129. AAAAGAACGA  1.05 ± 0.074
130. TCCCATGTTG  1.05 ± 0.054
131. AACTACCAGA  1.062 ± 0.0045
132. GATTAGGTGA  1.06 ± 0.014
133. TTAACTTTCT  1.058 ± 0.0094
134. TTTCCCGTAT  1.07 ± 0.049
135. TTCGTGACCT  1.1 ± 0.094
136. CCGAAGGGTA  1.1 ± 0.022
137. ATCGGGGCAC  1.1 ± 0.11
138. AGAGGCCAGG  1.0973 ± 0.00031
139. GAGCGTGGGA  1.11 ± 0.081
140. TTAGAAAATA  1.12 ± 0.15
141. GCTTTGTTTT  1.12 ± 0.3
142. AATTAGATAC  1.12 ± 0.074
143. GGGGGAATAT  1.13 ± 0.39
144. GATACCTTTT  1.13 ± 0.24
145. TATATCTGAC  1.16 ± 0.074
146. ACTTAACATT  1.18 ± 0.056
147. CAGGTGTGGG  1.2 ± 0.1
148. CTGCTCCGAT  1.21 ± 0.034
149. CGTCACATAA  1.22 ± 0.016
150. TAAATACTCG  1.25 ± 0.044
151. TTTTGCGGCG  1.25 ± 0.29
152. TAACCGCTTT  1.55 ± 0.7
153. GACGACGTTA  1.55 ± 0.026
154. CATCGGCGAT  1.56 ± 0.038
155. TCCCCTGGTT  1.64 ± 0.14
156. TGAAGCATCC  1.822 ± 0.0073
157. CCGAGCGCTT  4.69 ± 1.4
